From the supplement of paper PMC10126150
± gives the standard deviation of the averaged measurements.

System: ATP
Experiment: switch fluorescence ratio, 500 uM ATP over buffer (Cy3 cluster intensity, sum of 5 cycles each) (fold (ratio)); higher = stronger signal-on switching upon ATP binding; sequences stand for … in TCGTCGGCAGCGTCAGATGTGTATAAGAGACAGTTTTTTTTTTTTTTTTTTTTTTTTT…TC
Conditions: aptamer strand: ATP DNA aptamer (quencher-CACCTGGGGGAGTATTGCGGAGGAAGG + anchor), 100 nM annealed; ATP concentration: 500 uM
Procedure, shortened: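 The fluorescence ratio divides summed target-cycle Cy3 intensity by summed buffer-cycle Cy3 intensity for each cluster and is averaged per switch-domain sequence. Cy3-labelled switching-strand clusters on a modified Illumina MiSeq flow-cell were annealed to 100 nM quencher-labelled ATP aptamer, then imaged in selection buffer and again after 15 min with 500 uM ATP at 22 °C. Five such cycles were run, with NaOH stripping and re-annealing between them, and clusters outside 100-1000 RFU were excluded.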
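Further: ATP exposure 15 min at 22 °C before imaging.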

Sequence | switch fluorescence ratio
GAAGGGGGGG | 0.999 ± 0.042
GAAGGGGTAA | 1.18 ± 0.3
GAAGGGGTCG | 1.05 ± 0.046
GAAGGGGTTG | 1.02 ± 0.065
GAAGGGTAGC | 0.996 ± 0.037
GAAGGGTGAA | 0.9966 ± 0.0077
GAAGGTACGG | 1.04 ± 0.061
GAAGGTAGGG | 0.99 ± 0.051
GAAGGTATCC | 1.02 ± 0.037
GAAGGTGGGA | 1.038 ± 0.0092
GAAGGTTGCG | 1.03 ± 0.056
GAAGTAAAGT | 1.06 ± 0.15
GAAGTAAGCT | 0.983 ± 0.026
GAAGTACAGC | 1.26 ± 0.031
GAAGTAGGGA | 1 ± 0.064
GAAGTATTGT | 0.9951 ± 0.0062
GAAGTATTTT | 0.962 ± 0.027
GAAGTCATTT | 0.9828 ± 0.0031
GAAGTCTGGA | 1 ± 0.024
GAAGTGCGGA | 0.9795 ± 0.0061
GAAGTTATTT | 0.981 ± 0.021
GAAGTTCATG | 1.03 ± 0.024
GAAGTTGGCA | 0.9964 ± 0.0029
GAAGTTGTTT | 1.018 ± 0.002
GAATAAAAGG | 0.973 ± 0.019

Sequence | switch fluorescence ratio
GAATAAAGGT | 0.979 ± 0.02
GAATAGCCCA | 0.9711 ± 0.0012
GAATAGGGGG | 1.013 ± 0.0094
GAATAGGGTA | 0.98 ± 0.018
GAATAGTGGG | 1.006 ± 0.005
GAATATATAG | 0.965 ± 0.011
GAATATTGAG | 0.99 ± 0.019
GAATCATAGA | 1.004 ± 0.0094
GAATCCGCCC | 2.85 ± 0.74
GAATCGTCG | 0.983 ± 0.025
GAATGGAGAA | 0.992 ± 0.078
GAATGGAGTA | 1.04 ± 0.039
GAATGGATGC | 1.01 ± 0.0064
GAATGGCCTT | 0.9949 ± 0.0072
GAATGGGGTG | 1.02 ± 0.041
GAATGGTTTC | 0.9947 ± 0.0053
GAATGTGGGC | 0.955 ± 0.028
GAATGTTGTT | 0.9476 ± 0.0092
GAATTACGGG | 1.02 ± 0.023
GAATTAGACG | 0.977 ± 0.01
GAATTAGGTT | 1.01 ± 0.077
GAATTATGCC | 0.977 ± 0.021
GAATTGAGGG | 0.97 ± 0.054
GAATTGGT | 1.01 ± 0.012
GAATTGGTTG | 1 ± 0.04

Sequence | switch fluorescence ratio
GAATTGTTGT | 1 ± 0.02
GAATTTAAGT | 1.009 ± 0.0048
GAATTTACCT | 1.2 ± 0.039
GAATTTAGGT | 0.996 ± 0.028
GAATTTATAT | 0.998 ± 0.0032
GAATTTGAGA | 0.997 ± 0.019
GAATTTGATG | 1 ± 0.042
GACAAAGCGG | 1.07 ± 0.041
GACAAAGGGC | 1.08 ± 0.027
GACACCACAG | 1.162 ± 0.0035
GACACCATTC | 1.13 ± 0.017
GACACTGGTA | 1 ± 0.027
GACACTTGCT | 0.99 ± 0.035
GACAGAATGT | 0.976 ± 0.023
GACAGCAAAT | 1.406 ± 0.0043
GACAGCCTTA | 1.01 ± 0.0069
GACAGCGCTA | 1.01 ± 0.042
GACAGTAGGG | 1 ± 0.043
GACAGTGGTT | 1.05 ± 0.059
GACATATACA | 1.07 ± 0.025
GACATGAGTT | 0.984 ± 0.026
GACATGGCTT | 0.975 ± 0.011
GACATGTGGC | 1.03 ± 0.037
GACATGTTTT | 1.039 ± 0.0097
GACATTTGCA | 1.03 ± 0.023

Sequence | switch fluorescence ratio
GACCAAGTCA | 0.997 ± 0.026
GACCATGTAC | 1.48 ± 0.1
GACCCCGATT | 1.05 ± 0.022
GACCCTATAA | 1.11 ± 0.066
GACCCTTAGA | 1.01 ± 0.011
GACCGAAAAT | 1.055 ± 0.0015
GACCGCATTT | 1.68 ± 0.46
GACCGGCATG | 1.01 ± 0.024
GACCGGCGGT | 0.996 ± 0.035
GACCGTGGGG | 1 ± 0.027
GACCTAGCTA | 1.14 ± 0.053
GACCTCATTT | 1.04 ± 0.032
GACCTGGGTC | 1.01 ± 0.0023
GACGAACATT | 1.18 ± 0.21
GACGAAGTTG | 1.01 ± 0.029
GACGAATTGG | 0.997 ± 0.021
GACGACGGTT | 1.55 ± 0.1
GACGAGCCAG | 1.002 ± 0.0066
GACGATAGTT | 0.977 ± 0.026
GACGATTGTT | 0.988 ± 0.021
GACGCATCTA | 3.35 ± 0.36
GACGCGAGTT | 1.09 ± 0.022
GACGCTAAAG | 1.08 ± 0.029
GACGGACTTT | 1.143 ± 0.006
GACGGAGGCT | 1.04 ± 0.042

Sequence | switch fluorescence ratio
GACGGCAATG | 1.05 ± 0.032
GACGGCGCAG | 1.06 ± 0.14
GACGGCGGGC | 0.989 ± 0.023
GACGGGGGAT | 1.081 ± 0.0031
GACGGGGTGC | 1.3 ± 0.24
GACGGGTGTC | 0.967 ± 0.012
GACGGGTTGG | 0.992 ± 0.045
GACGGGTTTG | 0.9915 ± 0.0074
GACGGTTGGG | 0.983 ± 0.026
GACGGTTTAG | 1.04 ± 0.058
GACGTAGACA | 1.042 ± 0.01
GACGTCGGTC | 0.9984 ± 0.0089
GACGTGCAGG | 1.07 ± 0.11
GACGTGTTGG | 1.01 ± 0.065
GACGTTAGCT | 1.03 ± 0.012
GACGTTAGGG | 0.957 ± 0.042
GACGTTTACA | 1.17 ± 0.016
GACTAAAAGA | 0.99 ± 0.055
GACTAATTTT | 0.9844 ± 0.0081
GACTAGGGGG | 1 ± 0.048
GACTAGTGGT | 1.01 ± 0.035
GACTATCTAG | 0.975 ± 0.056
GACTATGACC | 1.05 ± 0.013
GACTATGGGA | 1.42 ± 0.55
GACTCATAAT | 1.004 ± 0.0015

Sequence | switch fluorescence ratio
GACTCCGATT | 2.28 ± 0.1
GACTCTACGG | 1.05 ± 0.032
GACTGAAAAA | 0.981 ± 0.14
GACTGAGAGT | 1 ± 0.054
GACTGAGTTC | 0.972 ± 0.042
GACTGGGCGG | 1 ± 0.021
GACTGGGGG | 1.0292 ± 0.00087
GACTGGGGGA | 1.01 ± 0.025
GACTGGTATG | 0.972 ± 0.011
GACTTACCAC | 1.17 ± 0.052
GACTTAGGAA | 1.05 ± 0.072
GACTTGAATT | 0.99 ± 0.034
GACTTGGTAG | 0.9884 ± 0.0053
GACTTGGTGT | 1.047 ± 0.0092
GACTTGTTGG | 0.974 ± 0.042
GACTTTAGCG | 1.03 ± 0.023
GACTTTGAGC | 1.01 ± 0.016
GACTTTGTAC | 1.06 ± 0.014
GACTTTTGGG | 1.01 ± 0.033
GAGAAAAAGG | 0.976 ± 0.013
GAGAACGGTG | 1 ± 0.032
GAGAACGTAG | 0.9817 ± 0.0066
GAGAAGGGGG | 1.04 ± 0.049
GAGAAGGGTG | 1.01 ± 0.071
GAGAAGTGTG | 0.993 ± 0.038

Sequence | switch fluorescence ratio
GAGAATTATA | 0.978 ± 0.019
GAGAGAACTT | 1.03 ± 0.021
GAGAGCAGGG | 0.995 ± 0.026
GAGAGCCTTA | 0.9853 ± 0.0079
GAGAGGAGAG | 0.998 ± 0.035
GAGAGGAGCT | 1.01 ± 0.039
GAGAGGGGGC | 0.931 ± 0.018
GAGAGTGTGT | 0.982 ± 0.011
GAGATACATG | 1.02 ± 0.044
GAGATCGGTA | 1.006 ± 0.0069
GAGATGCTGC | 1.05 ± 0.017
GAGATGGGGG | 0.981 ± 0.038
GAGATGTACC | 1.03 ± 0.026
GAGATTAAGA | 0.973 ± 0.1
GAGATTCGCT | 0.988 ± 0.014
GAGATTGGGG | 0.99 ± 0.022
GAGCAGGGGT | 1.04 ± 0.063
GAGCATAGGG | 1.02 ± 0.013
GAGCATTGGA | 0.992 ± 0.036
GAGCCACGGG | 1.04 ± 0.015
GAGCCTGGGT | 1.01 ± 0.017
GAGCGAAGGA | 1.01 ± 0.029
GAGCGCGGCG | 0.977 ± 0.048
GAGCGTAGTA | 1 ± 0.037
GAGCGTCTGG | 1.02 ± 0.011

Sequence | switch fluorescence ratio
GAGCTACGGG | 1.01 ± 0.033
GAGCTAGGCA | 0.958 ± 0.03
GAGCTAGGGT | 0.9905 ± 0.006
GAGCTAGTGT | 0.9792 ± 0.0081
GAGCTCAGTG | 1.002 ± 0.0069
GAGCTGAATG | 0.9518 ± 0.0063
GAGCTGGATA | 0.967 ± 0.03
GAGCTTAGGA | 0.988 ± 0.013
GAGCTTGCGT | 1.01 ± 0.025
GAGCTTGGCA | 0.9859 ± 0.0058
GAGCTTGGGG | 0.991 ± 0.028
GAGCTTTTCA | 0.965 ± 0.023
GAGGAAAATA | 0.981 ± 0.011
GAGGAAGTTA | 1.06 ± 0.097
GAGGAATTTT | 0.983 ± 0.0093
GAGGACTGTA | 1.09 ± 0.025
GAGGAGCTCG | 0.9522 ± 0.0045
GAGGAGGATA | 0.953 ± 0.024
GAGGAGGCGG | 1.03 ± 0.014
GAGGAGGGTT | 0.992 ± 0.051
GAGGATAAGT | 0.988 ± 0.078
GAGGATCTGT | 0.961 ± 0.023
GAGGATGGGG | 0.977 ± 0.039
GAGGCAGGGA | 1.19 ± 0.16
GAGGCATTTT | 1.09 ± 0.089
